Tests used:
Assay in all cases: holdup assay
Parameters in all cases: key: below the threshold = too weak to quantify, mostly under pKd 3.1 to 4
Conditions in all cases: plain residues with an end cap or a label only (N-terminal biotin on a linker: ado-ado)
APBA3_1, O96018 = molecular target: T1, APBA3_1, O96018
T1 sequence (O96018 389-490, limits assumed, looked up): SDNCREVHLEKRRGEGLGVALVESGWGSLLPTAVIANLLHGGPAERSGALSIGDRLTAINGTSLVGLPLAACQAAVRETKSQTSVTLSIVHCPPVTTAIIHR

DFNB31_1, Q9P202 = molecular target: T2, DFNB31_1, Q9P202
T2 sequence (Q9P202 135-233, limits assumed, looked up): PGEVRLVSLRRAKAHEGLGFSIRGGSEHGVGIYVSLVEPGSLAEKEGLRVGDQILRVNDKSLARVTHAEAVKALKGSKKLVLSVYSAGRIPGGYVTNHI

DLG4_3, P78352 = molecular target: DLG4_3, P78352
DLG5_1, Q8TDM6 = molecular target: DLG5_1, Q8TDM6
FRMPD4, Q14CM0 = molecular target: FRMPD4, Q14CM0
GIPC2, Q8TF65 = molecular target: GIPC2, Q8TF65
GORASP1, Q9BQQ3 = molecular target: GORASP1, Q9BQQ3
GRIP1_3, Q9Y3R0 = molecular target: T3, GRIP1_3, Q9Y3R0
T3 sequence (Q9Y3R0 247-346, limits assumed, looked up): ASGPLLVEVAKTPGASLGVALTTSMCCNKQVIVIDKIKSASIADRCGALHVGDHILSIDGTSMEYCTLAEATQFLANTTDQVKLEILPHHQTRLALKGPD

GRIP1_5, Q9Y3R0 = molecular target: T4, GRIP1_5, Q9Y3R0
T4 sequence (Q9Y3R0 568-668, limits assumed, looked up): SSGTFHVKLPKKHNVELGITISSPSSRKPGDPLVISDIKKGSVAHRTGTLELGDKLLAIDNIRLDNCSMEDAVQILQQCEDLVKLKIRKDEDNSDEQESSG

GRIP2_4, Q9C0E4 = molecular target: GRIP2_4, Q9C0E4
GRIP2_7, Q9C0E4 = molecular target: GRIP2_7, Q9C0E4
IL16_4, Q14005 = molecular target: IL16_4, Q14005
Inadl_1, Q8NI35 = molecular target: Inadl_1, Q8NI35
Inadl_6, Q8NI35 = molecular target: Inadl_6, Q8NI35
LNX1_1, Q8TBB1 = molecular target: LNX1_1, Q8TBB1
LNX1_2, Q8TBB1 = molecular target: LNX1_2, Q8TBB1
LNX1_3, Q8TBB1 = molecular target: LNX1_3, Q8TBB1
MAGI1_1, Q96QZ7 = molecular target: MAGI1_1, Q96QZ7
MAGI1_2, Q96QZ7 = molecular target: MAGI1_2, Q96QZ7
MAGI2_5, Q86UL8 = molecular target: MAGI2_5, Q86UL8
MAGI2_6, Q86UL8 = molecular target: MAGI2_6, Q86UL8
PDZRN3_1, Q9UPQ7 = molecular target: T5, PDZRN3_1, Q9UPQ7
T5 sequence (Q9UPQ7 244-349, limits assumed, looked up): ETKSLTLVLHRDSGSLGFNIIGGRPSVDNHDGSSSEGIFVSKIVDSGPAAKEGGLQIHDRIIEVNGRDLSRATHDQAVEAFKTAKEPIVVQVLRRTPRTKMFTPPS

PDZRN4_1, Q6ZMN7 = molecular target: PDZRN4_1, Q6ZMN7
PICK1, Q9NRD5 = molecular target: PICK1, Q9NRD5
RADIL, Q96JH8 = molecular target: T6, RADIL, Q96JH8
T6 sequence (Q96JH8 971-1071, limits assumed, looked up): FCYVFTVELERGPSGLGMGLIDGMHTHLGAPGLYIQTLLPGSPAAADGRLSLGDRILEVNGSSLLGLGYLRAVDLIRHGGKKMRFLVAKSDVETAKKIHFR

SCRIB_3, Q14160 = molecular target: SCRIB_3, Q14160
SNTB1, Q13884 = molecular target: T7, SNTB1, Q13884
T7 sequence (Q13884 107-205, limits assumed, looked up): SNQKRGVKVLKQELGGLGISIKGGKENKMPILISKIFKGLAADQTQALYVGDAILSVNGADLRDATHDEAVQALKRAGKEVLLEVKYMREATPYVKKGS

SNX27, Q96L92 = molecular target: SNX27, Q96L92
TX1BP3, O14907 = molecular target: T8, TX1BP3, O14907
T8 sequence (O14907 10-122, limits assumed, looked up): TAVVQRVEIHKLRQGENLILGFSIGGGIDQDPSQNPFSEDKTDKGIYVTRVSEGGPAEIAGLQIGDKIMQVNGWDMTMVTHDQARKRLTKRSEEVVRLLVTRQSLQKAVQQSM

Chain of MAGI1_2, Q96QZ7 (Q96QZ7 456-580): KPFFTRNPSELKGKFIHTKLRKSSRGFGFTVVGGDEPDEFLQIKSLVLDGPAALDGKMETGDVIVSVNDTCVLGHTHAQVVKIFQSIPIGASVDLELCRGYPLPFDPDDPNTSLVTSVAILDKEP
Chain of Inadl_1, Q8NI35 (Q8NI35 113-229): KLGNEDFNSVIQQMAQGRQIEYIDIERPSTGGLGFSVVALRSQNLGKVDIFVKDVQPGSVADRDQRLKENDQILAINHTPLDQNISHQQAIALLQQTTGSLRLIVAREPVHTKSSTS
Chain of SCRIB_3, Q14160 (Q14160 999-1103): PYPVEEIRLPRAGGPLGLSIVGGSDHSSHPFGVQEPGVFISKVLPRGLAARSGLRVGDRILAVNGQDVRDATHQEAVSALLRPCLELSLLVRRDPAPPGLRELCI
Chain of PICK1, Q9NRD5 (Q9NRD5 17-115): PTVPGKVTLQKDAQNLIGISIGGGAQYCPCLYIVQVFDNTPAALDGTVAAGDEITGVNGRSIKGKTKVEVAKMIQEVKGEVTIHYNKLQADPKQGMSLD
Chain of DLG4_3, P78352 (P78352 306-403): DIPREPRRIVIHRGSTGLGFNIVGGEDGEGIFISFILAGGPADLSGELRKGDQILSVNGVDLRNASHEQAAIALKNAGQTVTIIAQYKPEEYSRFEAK
Chain of FRMPD4, Q14CM0 (Q14CM0 67-160): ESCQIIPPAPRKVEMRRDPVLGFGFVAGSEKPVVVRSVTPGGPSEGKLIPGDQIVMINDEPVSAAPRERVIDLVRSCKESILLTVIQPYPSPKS
Chain of PDZRN4_1, Q6ZMN7 (Q6ZMN7 213-318): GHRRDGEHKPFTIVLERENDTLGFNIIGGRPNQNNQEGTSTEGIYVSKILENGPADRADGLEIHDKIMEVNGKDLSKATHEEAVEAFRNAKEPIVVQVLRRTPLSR
Chain of DLG5_1, Q8TDM6 (Q8TDM6 617-713): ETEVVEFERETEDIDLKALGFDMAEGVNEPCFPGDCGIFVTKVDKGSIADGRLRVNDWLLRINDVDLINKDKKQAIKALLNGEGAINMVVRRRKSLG
Chain of LNX1_3, Q8TBB1 (Q8TBB1 500-596): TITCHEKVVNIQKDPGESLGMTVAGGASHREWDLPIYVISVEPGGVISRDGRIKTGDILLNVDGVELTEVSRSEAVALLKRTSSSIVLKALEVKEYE
Chain of MAGI1_1, Q96QZ7 (Q96QZ7 1-106): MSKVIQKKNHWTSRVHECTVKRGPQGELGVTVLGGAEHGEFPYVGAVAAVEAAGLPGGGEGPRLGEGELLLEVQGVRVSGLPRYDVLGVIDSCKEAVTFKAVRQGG
Chain of Inadl_6, Q8NI35 (Q8NI35 1058-1167): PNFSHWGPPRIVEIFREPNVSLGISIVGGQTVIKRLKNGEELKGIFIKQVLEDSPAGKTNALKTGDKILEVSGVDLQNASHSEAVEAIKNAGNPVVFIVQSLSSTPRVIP
Chain of GORASP1, Q9BQQ3 (Q9BQQ3 1-208): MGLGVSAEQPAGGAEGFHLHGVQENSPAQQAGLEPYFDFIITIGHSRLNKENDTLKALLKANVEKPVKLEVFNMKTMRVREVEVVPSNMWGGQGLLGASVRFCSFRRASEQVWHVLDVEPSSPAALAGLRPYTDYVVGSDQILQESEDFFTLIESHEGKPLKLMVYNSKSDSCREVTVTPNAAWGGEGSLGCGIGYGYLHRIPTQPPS
Chain of LNX1_1, Q8TBB1 (Q8TBB1 261-371): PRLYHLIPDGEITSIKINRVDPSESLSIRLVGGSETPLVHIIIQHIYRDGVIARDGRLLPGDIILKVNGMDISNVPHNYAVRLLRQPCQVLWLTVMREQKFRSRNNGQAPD
Chain of IL16_4, Q14005 (Q14005 1229-1329): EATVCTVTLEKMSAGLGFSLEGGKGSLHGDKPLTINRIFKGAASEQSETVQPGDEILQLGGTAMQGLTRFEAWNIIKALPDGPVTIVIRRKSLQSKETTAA
Chain of MAGI2_5, Q86UL8 (Q86UL8 915-1017): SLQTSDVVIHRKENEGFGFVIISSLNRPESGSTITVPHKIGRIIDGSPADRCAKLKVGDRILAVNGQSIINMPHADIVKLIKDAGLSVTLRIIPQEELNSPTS
Chain of GRIP2_4, Q9C0E4 (Q9C0E4 446-548): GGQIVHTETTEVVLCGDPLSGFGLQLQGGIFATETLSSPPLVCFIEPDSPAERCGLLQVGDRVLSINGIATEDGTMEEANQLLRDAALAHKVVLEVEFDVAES
Chain of GIPC2, Q8TF65 (Q8TF65 112-203): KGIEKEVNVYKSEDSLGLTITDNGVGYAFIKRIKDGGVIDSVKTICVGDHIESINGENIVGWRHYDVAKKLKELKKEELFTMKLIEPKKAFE
Chain of GRIP2_7, Q9C0E4 (Q9C0E4 934-1023): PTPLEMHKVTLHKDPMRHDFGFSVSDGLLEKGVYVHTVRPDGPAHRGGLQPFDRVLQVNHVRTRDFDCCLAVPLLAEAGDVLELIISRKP
Chain of MAGI2_6, Q86UL8 (Q86UL8 1141-1229): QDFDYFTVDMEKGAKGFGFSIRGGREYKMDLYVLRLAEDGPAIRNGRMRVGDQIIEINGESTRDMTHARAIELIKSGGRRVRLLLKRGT
Chain of LNX1_2, Q8TBB1 (Q8TBB1 371-470): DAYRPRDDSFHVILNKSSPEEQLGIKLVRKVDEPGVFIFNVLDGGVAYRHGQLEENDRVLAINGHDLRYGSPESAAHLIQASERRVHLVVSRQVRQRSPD

| Binder | pKd (APBA3_1, O96018) | pKd (DFNB31_1, Q9P202) | pKd (DLG4_3, P78352) | pKd (DLG5_1, Q8TDM6) | pKd (FRMPD4, Q14CM0) | pKd (GIPC2, Q8TF65) | pKd (GORASP1, Q9BQQ3) | pKd (GRIP1_3, Q9Y3R0) | pKd (GRIP1_5, Q9Y3R0) | pKd (GRIP2_4, Q9C0E4) | pKd (GRIP2_7, Q9C0E4) | pKd (IL16_4, Q14005) | pKd (Inadl_1, Q8NI35) | pKd (Inadl_6, Q8NI35) | pKd (LNX1_1, Q8TBB1) | pKd (LNX1_2, Q8TBB1) | pKd (LNX1_3, Q8TBB1) | pKd (MAGI1_1, Q96QZ7) | pKd (MAGI1_2, Q96QZ7) | pKd (MAGI2_5, Q86UL8) | further results |
| --- | --- | --- | --- | --- | --- | --- | --- | --- | --- | --- | --- | --- | --- | --- | --- | --- | --- | --- | --- | --- | --- |
| HYPASPDSWV [CTNND2, Q9UQB3] | below the threshold | 4.34 | below the threshold | below the threshold | 3.76 | 3.61 | 3.93 | below the threshold | below the threshold | below the threshold | 3.95 | 3.67 | below the threshold | 4.37 | 4.12 | 3.8 | below the threshold | below the threshold | below the threshold | below the threshold | pKd (MAGI2_6, Q86UL8): 5.37; pKd (PDZRN3_1, Q9UPQ7): 3.83; pKd (PDZRN4_1, Q6ZMN7): 4.14; pKd (PICK1, Q9NRD5): 4.17; pKd (RADIL, Q96JH8): 5.02; pKd (SCRIB_3, Q14160): 4.4; pKd (SNTB1, Q13884): 4.23; pKd (SNX27, Q96L92): 5.06; pKd (TX1BP3, O14907): 5.15 |
| VCMGDHWFDV [PRKN, O60260] | below the threshold | below the threshold | below the threshold | below the threshold | 3.86 | 3.83 | 4.06 | below the threshold | below the threshold | below the threshold | 4.36 | below the threshold | below the threshold | 3.7 | 3.94 | 4.07 | 4.07 | below the threshold | below the threshold | below the threshold | pKd (MAGI2_6, Q86UL8): 4.19; pKd (PDZRN3_1, Q9UPQ7): below the threshold; pKd (PDZRN4_1, Q6ZMN7): below the threshold; pKd (PICK1, Q9NRD5): below the threshold; pKd (RADIL, Q96JH8): 4.44; pKd (SCRIB_3, Q14160): 3.98; pKd (SNTB1, Q13884): below the threshold; pKd (SNX27, Q96L92): 4.14; pKd (TX1BP3, O14907): 3.77 |
| HLSTRQGTCV [ATRNL1, Q5VV63] | below the threshold | 3.51 | 3.87 | below the threshold | 3.51 | below the threshold | 3.47 | below the threshold | below the threshold | below the threshold | below the threshold | below the threshold | below the threshold | below the threshold | 4.34 | 3.71 | below the threshold | below the threshold | 4.65 | 4.04 | pKd (MAGI2_6, Q86UL8): 4; pKd (PDZRN3_1, Q9UPQ7): 3.97; pKd (PDZRN4_1, Q6ZMN7): 3.76; pKd (PICK1, Q9NRD5): below the threshold; pKd (RADIL, Q96JH8): 4.28; pKd (SCRIB_3, Q14160): 4.13; pKd (SNTB1, Q13884): 3.99; pKd (SNX27, Q96L92): 4.05; pKd (TX1BP3, O14907): below the threshold |
